The term Kd denotes the free concentration of one partner at which half of the binding sites on the other are occupied at equilibrium, for simple one-to-one binding. The low end stands for tighter binding, the high end for weaker binding.

Two molecules from US20210107998A1 (Boehringer Ingelheim, published 2021) can be followed below.

The target of assay [1] is T1, human BAFF (human, UniProt Q9Y275 134-285, limits assumed). In words: cell-based or functional assay.
The target in assay [2] is T2, Recombinant human IL-23 (human, UniProt P29460 23-328).
T2 sequence 1: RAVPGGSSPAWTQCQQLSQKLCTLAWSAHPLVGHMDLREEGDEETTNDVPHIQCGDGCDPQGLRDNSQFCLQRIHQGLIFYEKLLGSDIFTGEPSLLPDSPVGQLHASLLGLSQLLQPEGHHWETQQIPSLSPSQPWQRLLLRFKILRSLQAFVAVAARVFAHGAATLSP
T2 sequence 2: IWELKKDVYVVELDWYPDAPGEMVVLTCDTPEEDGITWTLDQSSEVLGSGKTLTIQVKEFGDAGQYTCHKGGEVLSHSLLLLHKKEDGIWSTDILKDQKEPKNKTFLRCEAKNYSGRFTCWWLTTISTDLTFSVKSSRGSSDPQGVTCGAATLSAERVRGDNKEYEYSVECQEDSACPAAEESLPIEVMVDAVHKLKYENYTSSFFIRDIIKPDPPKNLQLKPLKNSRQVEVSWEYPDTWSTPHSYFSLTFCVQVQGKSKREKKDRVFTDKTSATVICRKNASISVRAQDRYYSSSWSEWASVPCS
Briefly: cell-based or functional assay.

Assay [3] deals with T2, Recombinant human IL-23. Briefly: cell-based or functional assay. The source holds these as a separate data set.
The target in assay [4] is T3, cynomolgus IL-23 (cynomolgus, UniProt H6WS56 20-189). In words: cell-based or functional assay.
Assay [5] addresses Recombinant human BAFF 60mer (Boehringer Ingelheim Pharmaceuticals, Inc.) (human, UniProt Q9Y275 134-285, limits assumed). In words: cell-based or functional assay.
In assay [6] the target is T4, Recombinant human BAFF trimer (Boehringer Ingelheim Pharmaceuticals, Inc.) (human, UniProt Q9Y275 134-285, limits assumed). In words: cell-based or functional assay.
Assay [7] concerns the target T4, Recombinant human BAFF trimer …. Briefly: cell-based or functional assay. This is another data set of the same source.
For assay [8], the target named is Recombinant cynomolgus BAFF trimer (Boehringer Ingelheim Pharmaceuticals, Inc.) (cynomolgus, UniProt A0A2K5V2X4 134-285). Briefly: cell-based or functional assay.
The target of assay [9] is membrane-bound human BAFF on fixed CHO-K1 cells (human, UniProt Q9Y275 1-285). In words: cell-based or functional assay.
The target of assay [10] is T5, Linked human IL-23 (Boehringer Ingelheim Pharmaceuticals, Inc.) (human, UniProt P29460 23-328).
T5 sequence 1: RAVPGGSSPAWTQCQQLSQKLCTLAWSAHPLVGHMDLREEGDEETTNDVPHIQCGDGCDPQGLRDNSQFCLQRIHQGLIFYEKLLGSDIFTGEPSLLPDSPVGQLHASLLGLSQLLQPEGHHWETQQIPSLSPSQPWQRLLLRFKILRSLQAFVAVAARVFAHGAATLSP
T5 sequence 2: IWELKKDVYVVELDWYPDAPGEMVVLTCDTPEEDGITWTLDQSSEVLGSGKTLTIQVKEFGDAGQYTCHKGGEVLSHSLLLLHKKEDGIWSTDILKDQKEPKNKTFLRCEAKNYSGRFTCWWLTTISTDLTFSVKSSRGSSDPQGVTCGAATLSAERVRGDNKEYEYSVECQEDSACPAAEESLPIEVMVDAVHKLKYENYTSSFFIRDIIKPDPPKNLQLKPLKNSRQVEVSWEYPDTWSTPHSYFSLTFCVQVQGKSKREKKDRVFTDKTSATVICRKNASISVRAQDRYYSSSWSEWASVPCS
Briefly: SPR (ProteOn XPR36), compound captured on goat anti-human IgG Fc, antigen injected. As for the experimental part: (§1) SPR experiments were performed on a ProteOn XPR36 instrument (Bio Rad). A GLM chip was preconditioned with sequential injections of 60 sec of 0.5% SDS, 50 mM NaOH, and 100 mM HCl at a flow rate of 30 μl/min both vertical and horizontal directions.
(§2) The preconditioned GLM chip was then activated by an injection of EDC (76.7 mg/ml) and sulfo-NHS (21.7 mg/ml) mixture with ratio of 1:1 in 6 horizontal channels. Goat-anti-human IgG (GAHA) Fc gamma (Invitrogen) at a concentration of 30 μg/ml in 10 mM, pH 5.0 sodium acetate buffer was immobilized to 8,000 resonance units on the activated GLM chip in 6 horizontal channels. The chip was finally deactivated with 1 M ethanolamine HCl in 6 horizontal channels. The prepared GAHA chip was rotated to vertical direction to capture test compounds, over 5 vertical channels and the last channel was used as a column reference. The captured chip was then rotated again to the horizontal direction for binding. […] The dissociation was allowed for 2 hour. The GAHA surface was regenerated using short pulse injection (18 seconds) of 0.85% phosphoric acid (Bio Rad) at a flow rate of 100 μl/min both horizontal and vertical directions after 10 min association and 2 hr dissociation. The regenerated GAHA was ready for another binding cycle.

A further assay deals with T6, cynomolgus BAFF (cynomolgus, UniProt A0A2K5V2X4 134-285).
T6 construct: construct not described
The assay is described as above. As for the experimental part:
as §1, §2

The target of assay [11] is T3, cynomolgus IL-23. The assay is described as above. As for the experimental part: as §1, §2
Assay [12] addresses T1, human BAFF. The description is as above. Here is the method: as §1, §2
In assay [13] the target is T2, Recombinant human IL-23. Briefly: BLI (Octet RED96, streptavidin tips), compound incubated 48 h at 37 C in whole blood vs kinetic buffer. As for the experimental part:
(§3) A whole blood interference assay was developed on an Octet RED96 to detect the effects of non-specific binding or off-target binding for compounds in the presence of whole blood (WB). The compound solutions in whole blood and 1× kinetic running buffer (1×kb) were incubated at a temperature of 37° C. for 48 hours. Kinetic measurements for the incubated compound samples were performed with an Octet RED96 equipped with streptavidin (SA) biosensor tips (ForteBio, Menlo Park, Calif.) at 27° C. The ratio of the on-rates/binding signals in buffer and whole blood were reported. A ratio <2 was considered to show no interference.

Assay [14] addresses T1, human BAFF. Described as above. As for the experimental part:
as §3

B1: Compound B (bispecific antibody, human IgG4 S228P, kappa)
chain 1: DIQMTQSPSSLSASVGDRVTITCKASRDVAIAVAWYQQKPGKVPKLLIYWASTRHTGVPSRFSGSGSRTDFTLTISSLQPEDVADYFCHQYSSYPFTFGSGTKLEIKGGGSGGGGQVQLVQSGAEVKKPGASVKVSCKASGYSFSTFFIHWVRQAPGQGLEWIGRIDPNSGATKYNEKFESRVTMTRDTSISTAYMELSRLRSDDTAVYYCARGEDLLIRTDALDYWGQGTSVTVSSLGGGSGASTKGPSVFPLAPCSRSTSESTAALGCLVKDYFPEPVTVSWNSGALTSGVHTFPAVLQSSGLYSLSSVVTVPSSSLGTKTYTCNVDHKPSNTKVDKRVESKYGPPCPPCPAPEFLGGPSVFLFPPKPKDTLYITREPEVTCVVVDVSQEDPEVQFNWYVDGVEVHNAKTKPREEQFNSTYRVVSVLTVLHQDWLNGKEYKCKVSNKGLPSSIEKTISKAKGQPREPQVYTLPPSQEEMTKNQVSLTCLVKGFYPSDIAVEWESNGQPENNYKTTPPVLDSDGSFFLYSRLTVDKSRWQEGNVFSCSVMHEALHNHYTQKSLSLSLG
chain 2: DIQMTQSPSSLSASVGDRVSITCKASQNAGIDVAWFQQKPGKAPKLLIYSKSNRYTGVPSRFSGSGSGTDFTLTISSLQPEDFATYYCLQYRSYPRTFGQGTKLEIKGGGSGGGGQVQLVQSGAEVKKPGSSVKVSCKASGYTFTDQTIHWMRQAPGQGLEWIGYIYPRDDSPKYNENFKGKVTITADKSTSTAYMELSSLRSEDTAVYYCAIPDRSGYAWFIYWGQGTLVTVSSLGGGSGRTVAAPSVFIFPPSDEQLKSGTASVVCLLNNFYPREAKVQWKVDNALQSGNSQESVTEQDSKDSTYSLSSTLTLSKADYEKHKVYACEVTHQGLSSPVTKSFNRGEC
notes: Large chain: IL23A(1) VL - BAFF(7) VH - LGGGSG - IgG4-Pro-YTE constant domain; small chain: BAFF(7) VL - IL23A(1) VH - LGGGSG - CL; Tetravalent format
Turning to B1, the “IC50, 3H-thymidine incorporation, primary human B cells stimulated with anti-IgM and hBAFF” value with human BAFF [1] stood at 0.0337 nM. In the assay with Recombinant human IL-23 [2], the “IC50, STAT3-luciferase reporter in DB lymphoblast B cells” value was found to be 0.161 nM and the “IC90, STAT3-luciferase reporter in DB lymphoblast B cells” value was 1.1 nM. In addition, in the assay with Recombinant human IL-23 [3], the “IC50, IL-23-induced mouse IL-17 release from mouse splenocytes” value came out at 0.202 nM and the “IC90, IL-23-induced mouse IL-17 release from mouse splenocytes” value turned out to be 1.36 nM. In the assay with cynomolgus IL-23 [4], the “IC50, IL-23-induced mouse IL-17 release from mouse splenocytes” value stood at 0.2 nM and the “IC90, IL-23-induced mouse IL-17 release from mouse splenocytes” value was 1.48 nM. In assay [5], the “IC50, NFkB luciferase reporter, human BAFFR-CHO cells” value was 0.006 nM and the “IC90, NFkB luciferase reporter, human BAFFR-CHO cells” value was found to be 0.017 nM. In [6], the “IC50, NFkB luciferase reporter, human BAFFR-CHO cells” value worked out at 0.039 nM and the “IC90, NFkB luciferase reporter, human BAFFR-CHO cells” value worked out at 0.256 nM. In assay [7], the “IC50 Geomean, NFkB luciferase reporter, human TACI-CHO cells” value amounted to 0.159 nM and the “IC90 Geomean, NFkB luciferase reporter, human TACI-CHO cells” value is 0.51 nM. In addition, in assay [8], the “IC50 Geomean, NFkB luciferase reporter, human BAFFR-CHO cells” value is 0.132 nM and the “IC90 Geomean, NFkB luciferase reporter, human BAFFR-CHO cells” value turned out to be 0.295 nM. Further, in assay [9], the “IC50, NFkB luciferase reporter, human BAFFR-CHO cells stimulated with fixed human BAFF CHO-K1 cells” value is 0.125 nM and the “IC90, NFkB luciferase reporter, human BAFFR-CHO cells stimulated with fixed human BAFF CHO-K1 cells” value is 1.14 nM. In assay [10], this molecule yielded a Kd below 0.015 nM. Further, the Kd with cynomolgus BAFF was below 0.015 nM. In addition, the Kd with cynomolgus IL-23 [11] was below 0.015 nM. The Kd with human BAFF [12] is below 0.015 nM. Moreover, the “Ratio of binding signal in WB/kinetic buffer” value in the assay with Recombinant human IL-23 [13] worked out at 1.5. Besides, the “Ratio of binding signal in WB/kinetic buffer” value in the assay with human BAFF [14] is 1.2.

B2: Control Antibody 3 (anti-BAFF monoclonal antibody) (BAFF (3)) (antibody, V domains shown)
VH: QVQLQQWGAGLLKPSETLSLTCAVYGGSFSGYYWSWIRQPPGKGLEWIGEINHSGSTNYNPSLKSRVTISVDTSKNQFSLKLSSVTAADTAVYYCARGYYDILTGYYYYFDYWGQGTLVTVSS
VL: EIVLTQSPATLSLSPGERATLSCRASQSVSRYLAWYQQKPGQAPRLLIYDASNRATGIPARFSGSGSGTDSTLTISSLEPEDFAVYYCQQRSNWPRTFGQGTKVEIK
For the molecule B2, the “IC50, 3H-thymidine incorporation, primary human B cells stimulated with anti-IgM and hBAFF” value with human BAFF [1] was determined as 0.0873 nM. Moreover, in assay [5], the “IC50, NFkB luciferase reporter, human BAFFR-CHO cells” value was 0.015 nM and the “IC90, NFkB luciferase reporter, human BAFFR-CHO cells” value amounted to 0.038 nM. Besides, in assay [6], the “IC50, NFkB luciferase reporter, human BAFFR-CHO cells” value was 0.07 nM and the “IC90, NFkB luciferase reporter, human BAFFR-CHO cells” value was found to be 0.417 nM. In [7], the “IC50 Geomean, NFkB luciferase reporter, human TACI-CHO cells” value came to 0.241 nM and the “IC90 Geomean, NFkB luciferase reporter, human TACI-CHO cells” value is 0.618 nM. For the same molecule, in assay [8], the “IC50 Geomean, NFkB luciferase reporter, human BAFFR-CHO cells” value turned out to be 0.257 nM and the “IC90 Geomean, NFkB luciferase reporter, human BAFFR-CHO cells” value turned out to be 0.588 nM. Moreover, in assay [9], the “IC50, NFkB luciferase reporter, human BAFFR-CHO cells stimulated with fixed human BAFF CHO-K1 cells” value is 0.25 nM and the “IC90, NFkB luciferase reporter, human BAFFR-CHO cells stimulated with fixed human BAFF CHO-K1 cells” value was 2.92 nM.
